Measurements reported in patent US20110239311A1 (MEDIZINISCHE UNIVERSITAT INNSBRUCK, published 2011).

How the values were obtained:
[1] = biological target: T1, endogenous PKCalpha from Jurkat T cell lysate (human, UniProt P17252 2-672); assay: GST pull down from Jurkat T cell lysate, immunoblot
T1 construct: also called PKCα
Protocol: (§1) GST pull down assay: 1×10⁷ Jurkat T cells were lysed in 1 ml lysis buffer (25 mM MES pH 6.5, 5 mM NaF, 1 mM Na₃VO₄, 2 mM EDTA, 150 mM NaCl, 0.5% TritonX-100, 50 μg/ml aprotinin and leupeptin). Lysates were precleared for 30 min at 4° C. Thereafter incubation with purified recombinant GST-NR2F6 fusion proteins for 3 h at 4° C., 5× washing in lysis buffer, SDS-PAGE under reducing conditions on Bis/Tris-buffered gels (Novex, San Diego, Calif.) was performed. Proteins were transferred onto a polyvinyl-difluoridon (PVDF) membrane (Millipore, Bedford, Mass.) by semi-dry blotting (90 mA, 80 min, 4° C.). […] Peroxidase-conjugated antibodies (Pierce, Rockford, Ill.) served as secondary reagent (1:5,000). For antigen detection enhanced chemiluminescence was used (Super Signal, Pierce, Rockford, Ill.).

[2] = biological target: T2, endogenous PKCtheta from Jurkat T cell lysate (human, UniProt Q04759 1-706); assay: as above
T2 construct: also called PKCθ
T2 sequence (Q04759 whole entry): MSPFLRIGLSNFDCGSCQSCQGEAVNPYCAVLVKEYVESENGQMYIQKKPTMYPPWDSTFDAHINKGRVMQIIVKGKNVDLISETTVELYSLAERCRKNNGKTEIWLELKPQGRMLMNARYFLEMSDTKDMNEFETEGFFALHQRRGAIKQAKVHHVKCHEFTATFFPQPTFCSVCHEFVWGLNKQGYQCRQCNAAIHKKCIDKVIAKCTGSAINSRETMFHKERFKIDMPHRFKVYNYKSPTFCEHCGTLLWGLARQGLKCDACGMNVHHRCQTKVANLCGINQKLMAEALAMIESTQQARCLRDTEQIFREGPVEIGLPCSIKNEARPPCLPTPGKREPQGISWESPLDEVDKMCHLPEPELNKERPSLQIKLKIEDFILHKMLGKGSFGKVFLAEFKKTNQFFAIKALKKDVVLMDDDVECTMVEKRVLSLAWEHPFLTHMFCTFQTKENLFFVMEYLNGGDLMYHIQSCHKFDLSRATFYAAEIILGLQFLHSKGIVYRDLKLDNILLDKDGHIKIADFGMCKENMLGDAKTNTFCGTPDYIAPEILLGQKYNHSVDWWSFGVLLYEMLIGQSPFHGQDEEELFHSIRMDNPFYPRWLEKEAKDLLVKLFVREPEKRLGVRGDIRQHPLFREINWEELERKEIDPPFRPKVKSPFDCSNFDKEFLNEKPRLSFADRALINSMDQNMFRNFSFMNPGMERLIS
Protocol: as §1

- binding result [1]: binds
- binding result [2]: binds
B1: GST-NR2F6 fusion protein, wild-type, full-length (purified recombinant) (other)
chain: MAMVTGGWGGPGGDTNGVDKAGGYPRAAEDDSASPPGAASDAEPGDEERPGLQVDCVVCGDKSSGKHYGVFTCEGCKSFFKRSIRRNLSYTCRSNRDCQIDQHHRNQCQYCRLKKCFRVGMRKEAVQRGRIPHSLPGAVAASSGSPPGSALAAVASGGDLFPGQPVSELIAQLLRAEPYPAAAGRFGAGGGAAGAVLGIDNVCELAARLLFSTVEWARHAPFFPELPVADQVALLRLSWSELFVLNAAQAALPLHTAPLLAAAGLHAAPMAAERAVAFMDQVRAFQEQVDKLGRLQVDSAEYGCLKAIALFTPDACGLSDPAHVESLQEKAQVALTEYVRAQYPSQPQRFGRLLLRLPALRAVPASLISQLFFMRLVGKTPIETLIRDMLLSGSTFNWPYGSGQ
notes: GST is placed at the N-terminus from the name 'GST-NR2F6' only; also called recombinant NR2F6; not shown: glutathione S-transferase (GST) fusion tag
